Fold less effective in competition than SEVNF data for one molecule are collected here from patent US20030200555A1.

The experiment deals with 2081/anti-NF IgG. Nature of the experiment: ECL (ORIGEN Analyzer), competition with biotinylated-SEVNF.

B1: SEVNL peptide (peptide)
peptide: SEVNL
B1 displayed a fold less effective in competition than SEVNF of 100 fold.
